# Ends that are not written are not given here.
# T1: GST–ETV1(249–477) fusion protein (UniProt P50549 249-477)
# T1 construct: ETV1, C-terminal half, residues 249-477; In the MST it was labelled through an anti-GST mouse mAb coupled to Alexa Fluor 647; also called fusion between GST and the C-terminal half of ETV1 (aa 249–477); source: E. coli, purified
# T1 sequence (looked up): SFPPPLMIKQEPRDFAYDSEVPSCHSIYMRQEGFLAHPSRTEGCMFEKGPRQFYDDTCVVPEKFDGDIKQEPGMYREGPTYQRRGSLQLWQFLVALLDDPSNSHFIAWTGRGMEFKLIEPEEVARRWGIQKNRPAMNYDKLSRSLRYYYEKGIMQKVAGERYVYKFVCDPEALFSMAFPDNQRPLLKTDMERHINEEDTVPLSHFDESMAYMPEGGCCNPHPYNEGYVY
# Molecular target: T1, GST–ETV1(249–477) fusion protein
# Assay: MST; Monolith NT.115; 15 serial dilutions of peptide (starting concentration 50 μM) against 300 nM GST–ETV1(249–477) with 20 nM anti-GST mouse mAb coupled to Alexa Fluor 647; PBS with 0.05% Tween-20
# Conditions: both partners purified
row,Binder,Kd [µM]
1,"VNPASVGGRLVFSGSKKKSSSSLGSGSSRDSIS-NH2 (peptide, UniProt O75164 490-522, looked up, JMJD2A/KDM4A, human, residues 490-522; also called JMJD2A aa 490–522 peptide; source: synthetic peptide (GenScript)) [unmethylated (WT) peptide spanning JMJD2A aa 490–522]",25.4
2,"VNPASVGGRLVFSGSK(Me)K(Me)K(Me)SSSSLGSGSSRDSIS-NH2 (peptide, UniProt O75164 490-522, looked up, N-terminus assumed; SMILES CC[C@H](C)[C@H](NC(=O)[C@H](CO)NC(=O)[C@H](CC(=O)O)NC(=O)[C@H](CCCNC(=N)N)NC(=O)[C@H](CO)NC(=O)[C@H](CO)NC(=O)CNC(=O)[C@H](CO)NC(=O)CNC(=O)[C@H](CC(C)C)NC(=O)[C@H](CO)NC(=O)[C@H](CO)NC(=O)[C@H](CO)NC(=O)[C@H](CO)NC(=O)[C@H](CCCCNC)NC(=O)[C@H](CCCCNC)NC(=O)[C@H](CCCCNC)NC(=O)[C@H](CO)NC(=O)CNC(=O)[C@H](CO)NC(=O)[C@H](Cc1ccccc1)NC(=O)[C@@H](NC(=O)[C@H](CC(C)C)NC(=O)[C@H](CCCNC(=N)N)NC(=O)CNC(=O)CNC(=O)[C@@H](NC(=O)[C@H](CO)NC(=O)[C@H](C)NC(=O)[C@@H]1CCCN1C(=O)[C@H](CC(N)=O)NC(=O)[C@@H](N)C(C)C)C(C)C)C(C)C)C(=O)N[C@@H](CO)C(N)=O, JMJD2A/KDM4A, human, residues 490-522; source: synthetic peptide (GenScript)) [triple methylated (on K505, K506, and K507; 3xme) peptide spanning JMJD2A aa 490–522]",8.7

# — paper PMC10619491, “SET7/9-mediated methylation affects oncogenic functions of histone demethylase JMJD2A” (JCI Insight, 2023)
